According to patent US20240158497A1 (published 2024):
Each block holds one binder with its values, some of them ahead of it.

Columns and labels:
[1] = biological target: T1, human GP130 extracellular domain expressed with a C-terminal myc-myc-hexahistidine tag (human, UniProt P40189 23-619); assay: SPR (Biacore 4000), mAb captured on anti-human Fc, 37 C
T1 construct: Monomeric reagent; also called hGP130-mmH; hGP130-MMH
Method: (§1) Equilibrium dissociation constant (KD) for different GP130 reagents binding to purified anti-GP130 monoclonal antibodies were determined using a real-time surface plasmon resonance based Biacore 4000 biosensor. All binding studies were performed in 10 mM HEPES, 150 mM NaCl, 3 mM EDTA, and 0.05% v/v Surfactant Tween-20, pH 7.4 (HBS-ET) running buffer at 25° C. and 37° C. The Biacore sensor surface was first derivatized by amine coupling with a monoclonal mouse anti-human Fc antibody (GE, #BR-1008-39) to capture anti-GP130 monoclonal antibodies. […] Reagents tagged with “mmH” are monomeric, whereas reagents tagged with “mFc” are dimeric. Thus, for example, “hGP130-mmH” is also referred to as “monomeric human GP130,” and “hGP130-mFc” is also referred to as “dimeric human GP130.”
(§2) The association rate (k a) and dissociation rate (kd) were determined by fitting the real-time binding sensorgrams to a 1:1 binding model with mass transport limitation using Scrubber 2.0c curve-fitting software. Binding dissociation equilibrium constant (KD) and dissociative half-life (t ½) were calculated from the kinetic rates as: […]

[2] = biological target: T2, Macaca fascicularis GP130 extracellular domain expressed with a C-terminal myc-myc-hexahistidine tag (Macaca fascicularis, UniProt P40189 23-619 (human entry)); assay: as above
T2 construct: Monomeric reagent; also called mfGP130-mmH; mfGP130-MMH
T2 chain: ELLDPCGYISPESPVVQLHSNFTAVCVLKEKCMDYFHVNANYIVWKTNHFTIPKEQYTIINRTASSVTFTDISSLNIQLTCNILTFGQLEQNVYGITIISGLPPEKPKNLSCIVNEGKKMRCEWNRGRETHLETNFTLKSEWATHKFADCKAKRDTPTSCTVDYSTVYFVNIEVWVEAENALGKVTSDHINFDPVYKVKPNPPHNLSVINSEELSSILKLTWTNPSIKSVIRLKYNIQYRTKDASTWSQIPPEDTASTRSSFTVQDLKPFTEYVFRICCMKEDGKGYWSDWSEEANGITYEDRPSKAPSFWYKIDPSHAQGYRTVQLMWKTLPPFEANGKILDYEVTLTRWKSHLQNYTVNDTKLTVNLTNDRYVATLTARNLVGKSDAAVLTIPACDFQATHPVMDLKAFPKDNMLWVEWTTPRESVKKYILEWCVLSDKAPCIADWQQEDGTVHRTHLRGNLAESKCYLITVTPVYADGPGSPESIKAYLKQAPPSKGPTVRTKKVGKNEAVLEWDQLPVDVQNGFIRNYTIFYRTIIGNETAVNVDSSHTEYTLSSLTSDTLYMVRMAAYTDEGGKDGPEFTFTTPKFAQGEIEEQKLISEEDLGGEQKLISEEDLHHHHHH
Method: as §1, §2

[3] = biological target: T2, Macaca fascicularis GP130 extracellular …; assay: SPR (Biacore 4000), mAb captured on anti-human Fc, 25 C
Method: as §1, §2

B1: MAb16637 (antibody, V domains shown)
VH: QVQLVQSGAEVKKPGASVKVSCKASGYTFTSLGISWVRQAPGQGLEWMGWISAYSGNRDYAQKFQGRVTMTTDTSTSTAYMELRSLRSDDTAVYYCARSLRFDYWGQGTLVTVSS
VL: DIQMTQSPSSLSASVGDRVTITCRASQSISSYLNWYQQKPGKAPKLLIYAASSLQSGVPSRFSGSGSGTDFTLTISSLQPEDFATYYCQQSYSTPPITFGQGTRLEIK
100 nM Ag Bound [1]: 110 RU
Kd [1]: 17.3 nM
koff [1]: 0.00342 s⁻¹
kon [1]: 197000 M⁻¹ s⁻¹
t½ [1]: 3 min
100 nM Ag Bound [2]: 104 RU
Kd [2]: 14.8 nM
koff [2]: 0.00263 s⁻¹
kon [2]: 178000 M⁻¹ s⁻¹
t½ [2]: 4 min
100 nM Ag Bound [3]: 87 RU
Kd [3]: 15.9 nM
koff [3]: 0.00109 s⁻¹
kon [3]: 68300 M⁻¹ s⁻¹
t½ [3]: 11 min

B2: MAb16673 (antibody, V domains shown)
VH: EVQLVQSGAEVKKPGESLKISCKGSGYSFTSYWIDWVRQMPGKGLEWMGIIYPDDSDTRYSPSFQGQVTMSVDKSISTAYLQWSSLKASDTAIYYCARHERGIVEAGTDYYYYYGMDVWGQGTTVTVSS
VL: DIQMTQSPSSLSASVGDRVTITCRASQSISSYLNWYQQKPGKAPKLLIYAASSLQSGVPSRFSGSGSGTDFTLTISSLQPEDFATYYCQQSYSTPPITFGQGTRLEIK
100 nM Ag Bound [1]: 40 RU
Kd [1]: 75.4 nM
koff [1]: 0.0404 s⁻¹
kon [1]: 536000 M⁻¹ s⁻¹
t½ [1]: 0.3 min
100 nM Ag Bound [2]: 64 RU
Kd [2]: 34.1 nM
koff [2]: 0.0211 s⁻¹
kon [2]: 617000 M⁻¹ s⁻¹
t½ [2]: 0.5 min
100 nM Ag Bound [3]: 86 RU
Kd [3]: 22.2 nM
koff [3]: 0.00693 s⁻¹
kon [3]: 312000 M⁻¹ s⁻¹
t½ [3]: 1.7 min

B3: MAb16664 (antibody, V domains shown)
VH: QVQLVQSGTEVKKPGSSVKVSCKASGGTFSTYPINWVRQAPGQGLEWMGGIIPIFGTASYAQKFQGRVAITTDESTSTAYMELNSLRSEDTAVYYCARERPNWGSNDYWGQGTLVTVSS
VL: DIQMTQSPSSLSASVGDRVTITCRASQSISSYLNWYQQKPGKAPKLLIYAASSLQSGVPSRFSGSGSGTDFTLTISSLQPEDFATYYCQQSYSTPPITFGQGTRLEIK
100 nM Ag Bound [1]: 16 RU
Kd [1]: 14.2 nM
koff [1]: 0.00826 s⁻¹
kon [1]: 580000 M⁻¹ s⁻¹
t½ [1]: 1.4 min
100 nM Ag Bound [2]: 16 RU
Kd [2]: 11.6 nM
koff [2]: 0.00788 s⁻¹
kon [2]: 680000 M⁻¹ s⁻¹
t½ [2]: 1.5 min
100 nM Ag Bound [3]: 13 RU
Kd [3]: 3.21 nM
koff [3]: 0.00175 s⁻¹
kon [3]: 543000 M⁻¹ s⁻¹
t½ [3]: 7 min

B5: MAb16666 (antibody, V domains shown)
VH: EVQLVESGGGLVQSGGSLRLSCAASGFTFSRYEMNWVRQAPGKGLEWVAYISNTGTTRDYSDSVKGRFTISRDNAKNSLYLQMSSLRVEDTAVYYCVREKFSGTSDWFDPWGQGTLVTVSS
VL: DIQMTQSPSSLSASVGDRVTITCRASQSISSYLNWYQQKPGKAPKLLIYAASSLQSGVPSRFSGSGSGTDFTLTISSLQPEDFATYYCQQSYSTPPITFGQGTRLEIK
100 nM Ag Bound [1]: 104 RU
Kd [1]: 17.1 nM
koff [1]: 0.0101 s⁻¹
kon [1]: 588000 M⁻¹ s⁻¹
t½ [1]: 1.1 min
100 nM Ag Bound [2]: 90 RU
Kd [2]: 24.7 nM
koff [2]: 0.0131 s⁻¹
kon [2]: 528000 M⁻¹ s⁻¹
t½ [2]: 0.9 min
100 nM Ag Bound [3]: 123 RU
Kd [3]: 18.3 nM
koff [3]: 0.0053 s⁻¹
kon [3]: 290000 M⁻¹ s⁻¹
t½ [3]: 2.2 min

B9: MAb16669 (antibody, V domains shown)
VH: EVQLVESGGGLVQPGGSLRLSCAASGFTFSSYAMNWVRQAPGKGLEWVSAISGSGDSTYYTDSVKGRFTISRDNSKNTLYLQMNTLRAEDTAVYYCAKEEIVMLVGATPGWFDPWGQGTLVTVSS
VL: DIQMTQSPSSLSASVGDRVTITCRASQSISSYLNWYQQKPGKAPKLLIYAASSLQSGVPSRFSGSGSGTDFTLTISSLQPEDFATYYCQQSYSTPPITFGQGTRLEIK
100 nM Ag Bound [1]: 25 RU
Kd [1]: 19.3 nM
koff [1]: 0.00106 s⁻¹
kon [1]: 55100 M⁻¹ s⁻¹
t½ [1]: 11 min
100 nM Ag Bound [2]: 8 RU
100 nM Ag Bound [3]: 3 RU
binding result [3]: no binding (tested: 100 nM)

B11: MAb16659 (antibody, V domains shown)
VH: QVQLVQSGPEVKKPGSSVKVSCKASGGTIDRNEITWVRQAPGQGLEWMGVIIPILGEAHYERKFQGRLTITMDESTSTAYMELSNLRSEDTAVYYCARERAARGYLDYWGQGTLVTVSS
VL: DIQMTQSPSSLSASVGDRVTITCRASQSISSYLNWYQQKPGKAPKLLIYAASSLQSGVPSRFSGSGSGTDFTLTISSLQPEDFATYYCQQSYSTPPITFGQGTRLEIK
100 nM Ag Bound [1]: 82 RU
Kd [1]: 1.84 nM
koff [1]: 0.00171 s⁻¹
kon [1]: 928000 M⁻¹ s⁻¹
t½ [1]: 7 min
100 nM Ag Bound [2]: 78 RU
Kd [2]: 2.34 nM
koff [2]: 0.00174 s⁻¹
kon [2]: 747000 M⁻¹ s⁻¹
t½ [2]: 7 min
100 nM Ag Bound [3]: 74 RU
Kd [3]: 0.812 nM
koff [3]: 0.00044 s⁻¹
kon [3]: 542000 M⁻¹ s⁻¹
t½ [3]: 26 min

B12: MAb16656 (antibody, V domains shown)
VH: EVQLVESGGGLVQPGRSLRLSCAASGFTLDDFAMHWVRQAPGKGLEWVSGISWNSGNIGYADSVKGRFTISRDNARNSLYLQMNSLRAEDTALYYCTSGYYLYYAMDVWGQGTTVTVSS
VL: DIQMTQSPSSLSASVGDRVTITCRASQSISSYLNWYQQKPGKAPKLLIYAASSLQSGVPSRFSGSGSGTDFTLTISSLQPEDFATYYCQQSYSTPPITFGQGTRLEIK
100 nM Ag Bound [1]: 50 RU
Kd [1]: 60.7 nM
koff [1]: 0.00426 s⁻¹
kon [1]: 70100 M⁻¹ s⁻¹
t½ [1]: 2.7 min
100 nM Ag Bound [2]: 47 RU
Kd [2]: 61.3 nM
koff [2]: 0.00411 s⁻¹
kon [2]: 67000 M⁻¹ s⁻¹
t½ [2]: 2.8 min
100 nM Ag Bound [3]: 42 RU
Kd [3]: 19 nM
koff [3]: 0.000846 s⁻¹
kon [3]: 44400 M⁻¹ s⁻¹
t½ [3]: 14 min

The next lines start with the values.

100 nM Ag Bound [1]: 17 RU
Kd [1]: 134 nM
koff [1]: 0.0585 s⁻¹
kon [1]: 436000 M⁻¹ s⁻¹
t½ [1]: 0.2 min
100 nM Ag Bound [2]: 14 RU
Kd [2]: 167 nM
koff [2]: 0.0592 s⁻¹
kon [2]: 355000 M⁻¹ s⁻¹
t½ [2]: 0.2 min
100 nM Ag Bound [3]: 15 RU
Kd [3]: 184 nM
koff [3]: 0.038 s⁻¹
kon [3]: 207000 M⁻¹ s⁻¹
t½ [3]: 0.3 min
B4: MAb16662 (antibody, V domains shown)
VH: EVQLVESGGGLVQPGGSLRLSCTASGFTFSNYAIFWVRQAPGKGLEYVSGISNNGVTKYYADSVRDRFTISRDNSRNTVSIQMDSLRTEDMAVYYCARENWGSDDGFDIWGQGTMVTVSS
VL: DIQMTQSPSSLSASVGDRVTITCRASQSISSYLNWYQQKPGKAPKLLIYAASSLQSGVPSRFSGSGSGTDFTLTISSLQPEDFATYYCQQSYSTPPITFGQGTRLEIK

100 nM Ag Bound [1]: 19 RU
Kd [1]: 164 nM
koff [1]: 0.0693 s⁻¹
kon [1]: 423000 M⁻¹ s⁻¹
t½ [1]: 0.2 min
100 nM Ag Bound [2]: 14 RU
Kd [2]: 205 nM
koff [2]: 0.101 s⁻¹
kon [2]: 492000 M⁻¹ s⁻¹
t½ [2]: 0.1 min
100 nM Ag Bound [3]: 16 RU
Kd [3]: 233 nM
koff [3]: 0.0505 s⁻¹
kon [3]: 217000 M⁻¹ s⁻¹
t½ [3]: 0.2 min
B6: MAb16665 (antibody, V domains shown)
VH: QVQLVESGGGVVQPGRSLRLACAASGFTFRSYGMHWVRQAPGKGLEWVAVIWYDGSNKYYTDSVKGRFTISRDNSKNTLYLQMNSLRAEDTAMYYCAIDKWATVTTYLFDYWGQGTLVTVSS
VL: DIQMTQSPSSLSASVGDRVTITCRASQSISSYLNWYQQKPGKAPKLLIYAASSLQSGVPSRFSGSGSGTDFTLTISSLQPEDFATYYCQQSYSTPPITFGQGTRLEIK

100 nM Ag Bound [1]: 16 RU
Kd [1]: 113 nM
koff [1]: 0.0341 s⁻¹
kon [1]: 301000 M⁻¹ s⁻¹
t½ [1]: 0.3 min
100 nM Ag Bound [2]: 15 RU
Kd [2]: 124 nM
koff [2]: 0.0386 s⁻¹
kon [2]: 311000 M⁻¹ s⁻¹
t½ [2]: 0.3 min
100 nM Ag Bound [3]: 20 RU
Kd [3]: 132 nM
koff [3]: 0.0168 s⁻¹
kon [3]: 128000 M⁻¹ s⁻¹
t½ [3]: 0.7 min
B7: MAb16682 (antibody, V domains shown)
VH: EVQLVESGGGLVQPGGSLRLSCAASGFTFSTYWMNWVRQAPGKGLEWVANIKEDGSEKYYVDSVKGRFTISRDNAKNSLYLQMNSLRAEDTAVYYCAREGFGVVTYIWGQGTMVTVSS
VL: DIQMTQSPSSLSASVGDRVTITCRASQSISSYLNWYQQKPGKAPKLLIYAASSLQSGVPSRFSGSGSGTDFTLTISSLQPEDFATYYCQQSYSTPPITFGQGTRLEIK

100 nM Ag Bound [1]: 52 RU
Kd [1]: 6.01 nM
koff [1]: 0.00236 s⁻¹
kon [1]: 393000 M⁻¹ s⁻¹
t½ [1]: 5 min
100 nM Ag Bound [2]: 48 RU
Kd [2]: 7.12 nM
koff [2]: 0.00243 s⁻¹
kon [2]: 341000 M⁻¹ s⁻¹
t½ [2]: 5 min
100 nM Ag Bound [3]: 49 RU
Kd [3]: 2.2 nM
koff [3]: 0.000597 s⁻¹
kon [3]: 272000 M⁻¹ s⁻¹
t½ [3]: 19 min
B8: MAb16676 (antibody, V domains shown)
VH: QVQLVQSGAEVMKPGASVKVSCRASGYTFSSYDINWVRQAPGQGLEWMGWISTATGNTNYPQKVQGRVTMTTDTSTNTAYMELRSLRSDDTAVYYCTREGNSKGWLDPWGQGTLVTVSS
VL: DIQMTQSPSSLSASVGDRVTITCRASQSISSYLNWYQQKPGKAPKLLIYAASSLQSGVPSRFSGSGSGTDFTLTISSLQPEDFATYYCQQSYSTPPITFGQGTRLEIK

100 nM Ag Bound [1]: 50 RU
Kd [1]: 71.6 nM
koff [1]: 0.00441 s⁻¹
kon [1]: 61600 M⁻¹ s⁻¹
t½ [1]: 2.6 min
100 nM Ag Bound [2]: 25 RU
Kd [2]: 239 nM
koff [2]: 0.00945 s⁻¹
kon [2]: 39500 M⁻¹ s⁻¹
t½ [2]: 1.2 min
100 nM Ag Bound [3]: 23 RU
Kd [3]: 107 nM
koff [3]: 0.00216 s⁻¹
kon [3]: 20100 M⁻¹ s⁻¹
t½ [3]: 5 min
B10: MAb16636 (antibody, V domains shown)
VH: QLQLQESGPGLVKPSETLSLICTVSGGSISSNNYYWGWIRQPPGKGLEWIGNLYGSGSTYYNPSLKSRVTISVDTSKNQFSLKLSFVTAADTAVYHCARWDTNGGAFDIWGQGTMVTVSS
VL: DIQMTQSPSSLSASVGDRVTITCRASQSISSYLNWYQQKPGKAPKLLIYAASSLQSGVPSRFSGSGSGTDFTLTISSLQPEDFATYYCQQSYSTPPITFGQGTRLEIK
